Test results reported in article PMC10598736, “Structural insights into Rad18 targeting by the SLF1 BRCT domains” (The Journal of Biological Chemistry, 2023).

Experiments:
[1] = target: T1, full-length Rad18 S442E, strep-his-sumo-tagged (human, UniProt Q9NS91 1-495, S442E); assay: pull-down; his-strep-sumo-tagged Rad18 (50 μg) held on streptactin beads, incubated with 50 μg SLF1^tBRCT at 4 °C for 60 min; 20 mM Tris (pH 7.5), 200 mM sodium chloride, 2 mM DTT; eluted with D-desthiobiotin, SDS PAGE; settings: both partners purified
T1 construct: Rad18, human, with the phosphomimetic S442E; also called S442E-substituted Rad18; source: E. coli BL21 Rosetta (DE3), purified (same protocol as the wild type); not shown: Strep, N-terminal, kept; His, N-terminal, kept; SUMO, N-terminal, kept

[2] = target: T2, full-length Rad18 S442E/S444E (2SE), strep-his-sumo-tagged (human, UniProt Q9NS91 1-495, S442E | S444E); assay: as above; settings: both partners purified
T2 construct: Rad18, human, with the phosphomimetics S442E/S444E; also called S442E/S444E (2SE)-substituted Rad18; source: E. coli BL21 Rosetta (DE3), purified (same protocol as the wild type); not shown: Strep, N-terminal, kept; His, N-terminal, kept; SUMO, N-terminal, kept
T2 sequence (Q9NS91 whole entry S442E/S444E): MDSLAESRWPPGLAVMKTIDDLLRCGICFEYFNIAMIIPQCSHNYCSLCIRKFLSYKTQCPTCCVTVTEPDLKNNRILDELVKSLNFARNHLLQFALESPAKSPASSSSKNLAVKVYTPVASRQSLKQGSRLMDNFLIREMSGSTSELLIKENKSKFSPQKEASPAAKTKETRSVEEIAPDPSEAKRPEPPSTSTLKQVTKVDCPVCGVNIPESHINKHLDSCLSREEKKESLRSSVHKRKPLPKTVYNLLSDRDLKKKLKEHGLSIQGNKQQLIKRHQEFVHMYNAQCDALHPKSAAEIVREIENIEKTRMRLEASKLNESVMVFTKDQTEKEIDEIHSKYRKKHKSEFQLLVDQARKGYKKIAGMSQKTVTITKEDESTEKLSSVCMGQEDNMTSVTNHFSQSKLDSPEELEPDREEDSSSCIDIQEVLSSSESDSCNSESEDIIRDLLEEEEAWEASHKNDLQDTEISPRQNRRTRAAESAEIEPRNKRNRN

T1 sequence (Q9NS91 whole entry S442E): as the sequence (Q9NS91 whole entry S442E/S444E) above, with E444S counted along it

binding result [1]: binds
binding result [2]: binds
B1: SLF1 tandem BRCT repeat (SLF1^tBRCT), residues 1-199, wild type (domain or fragment, UniProt Q9BQI6 1-199, looked up)
chain: MEDGTPKHIIQMTGFKMEEKEALVKLLLKLDCTFIKSEKYKNCTHLIAERLCKSEKFLAACAAGKWILTKDYIIHSAKSGRWLDETTYEWGYKIEKDSRYSPQMQSAPKRWREELKRTGAPGAFHRWKVVLLVRTDKRSDSLIRVLEAGKANVILPKSSPSGITHVIASNARIKAEKEKDNFKAPFYPIQYLGDFLLEK
notes: SMC5/6 localization factor 1 (SLF1), tandem BRCT repeat at the N-terminus, residues 1-199; coding region optimized for E. coli and synthesized; also called WT; SMC5/6 localization factor 1 tBRCT; source: E. coli BL21 Rosetta (DE3), purified (Ni-NTA, heparin, gel filtration)
